Assay results published in US20210253718A1, “FRIZZLED5 PROTEIN-BINDING AGENTS” (Modmab Therapeutics Corporation, priority 2016, published 2021).

Biological target: T1, FZD2 CRD (Homo sapiens, UniProt Q14332)
T1 construct: D35-P161; GPI anchor signal (C); expressed in transfected cells; host or cells: CHO cells, lentiviral pLenti-puro
Assay: Immunofluorescence of anti-FZD5 Fab binding to CHO cells overexpressing Frizzled CRD
Parameters: key: −: no binding; +: very weak binder; ++: weak binder; +++: good binder; ++++: very good binder
Description: Plasmids: pLCKO lentiviral vector used for knockout (TKO) library construction and expression of individual gRNAs was constructed as described previously (Hart et al., 2015). Briefly, single guide RNA (sgRNA) scaffold was amplified from px330 (Addgene 42230) and cloned into pLKO.TRC005 lentiviral vector (Broad Institute, Cambridge, Mass.) using AgeI/EcoRI restriction sites. BfuAI sites were added at the 5′ end of the sgRNA scaffold for cloning the TKO library or individual gRNA target sequences. Lenti Cas9-2A-BsdR vector used to generate Cas9 stable expression cell lines was constructed as described previously (Hart et al., 2015). Briefly, lentiCRISPR pXPR_001 (Addgene 49535) was modified through removal of the sgRNA scaffold region through NdeI/EcoRI digest and blunt ends generation using Large Klenow Fragment (NEB). 2A-puro was replaced with 2A-BsdR by PCR using the NheI/MluI sites. Each of the 10 human Frizzled cysteine rich domains (CRDs) were cloned into the lentiviral expression plasmid pLenti-puro in the following cassette: FZD_CRD-MYC-GPI.
To confirm that the FZD5-WNT7B circuit is not driven simply by expression and rule out the possibility of a disconnect between RNA and protein levels for the Wnt receptors in HPAF-II cells, a panel of recombinant Fabs were generated, alternatively referred to herein as ‘Frizzled profiler’, that can detect and discriminate all but one of the ten Frizzled receptors. […] To characterize the binding specificity of these Fabs on cells, a panel of 10 CHO cell lines was generated, each expressing the CRD domain of a different myc-tagged Frizzled family member anchored at the plasma membrane through a GPI anchor (CHO-myc-FZDGPI). Despite the high sequence identity between Frizzled family members (FIG. 7A, FIG. 7B), selective Fabs were identified for FZD4, FZD5, FZD6 and FZD10 as assessed by immunofluorescence and flow cytometry (FIG. 7D and FIG. 8). […] The FZD8 CRD is most homologous to that of FZD5 (FIG. 7B). These Fabs can be used to discriminate expression of FZD1, FZD2, FZD4, FZD5, FZD6, FZD7, FZD8, FZD9 and FZD10 (FIG. 7D and FIG. 8). The ‘Frizzled profiler’ therefore consists of 10 different Fabs that can be used to discriminate expression of 9 different Frizzled family members. The Frizzled profiler was then used to confirm that HPAF-II cells express FZD1, FZD5, FZD6 and possibly FZD8 (FIG. 7E).
The binding of anti-FZD5 Fabs to cell surface-expressed Frizzled protein was further determined for each member of the Frizzled family via flow cytometry and immunofluorescence analysis of a panel of 10 CHO cell lines, each ectopically over-expressing the extracellular cysteine-rich domain (CRD) of a different Frizzled protein family member.

Immunofluorescence binding, Frizzled CRD overexpressed on CHO cells: FZD2: +
Substance: Fab-2931: anti-FZD5 Fab with antibody variable region Fv-2931; CDR SEQ ID NOs: 35, 36, 70, 102, 146, 176 (CDR 1 QSVSSA; CDR 2 SAS; CDR 3 QQSSYSLIT; CDR 4 GFNLSYSS; CDR 5 ISPYSGST; CDR 6 ARGSYWYVGGGWWVSGHGGMDY)
